Target: huIgG1 Fc (dummy) K409D&K392D (human) [IgG part: P0DOX5]
Assay: co-expression in 293-6E with M315 scFv-Fc D399′K; E357′K, non-reduced SDS-PAGE (FIG. 10), band density

percentage of Dummy Fc Homodimer yield: 20.9%
Substance: huIgG1 Fc (dummy) K409D&K392D (from UniProt P0DOX5 218-449)

From patent US20100286374A1
